According to IntAct's records for PubMed 20308429:

Molecular target: vinc_mouse Vcl (UniProt Q64727)
Sequence (Q64727 whole entry): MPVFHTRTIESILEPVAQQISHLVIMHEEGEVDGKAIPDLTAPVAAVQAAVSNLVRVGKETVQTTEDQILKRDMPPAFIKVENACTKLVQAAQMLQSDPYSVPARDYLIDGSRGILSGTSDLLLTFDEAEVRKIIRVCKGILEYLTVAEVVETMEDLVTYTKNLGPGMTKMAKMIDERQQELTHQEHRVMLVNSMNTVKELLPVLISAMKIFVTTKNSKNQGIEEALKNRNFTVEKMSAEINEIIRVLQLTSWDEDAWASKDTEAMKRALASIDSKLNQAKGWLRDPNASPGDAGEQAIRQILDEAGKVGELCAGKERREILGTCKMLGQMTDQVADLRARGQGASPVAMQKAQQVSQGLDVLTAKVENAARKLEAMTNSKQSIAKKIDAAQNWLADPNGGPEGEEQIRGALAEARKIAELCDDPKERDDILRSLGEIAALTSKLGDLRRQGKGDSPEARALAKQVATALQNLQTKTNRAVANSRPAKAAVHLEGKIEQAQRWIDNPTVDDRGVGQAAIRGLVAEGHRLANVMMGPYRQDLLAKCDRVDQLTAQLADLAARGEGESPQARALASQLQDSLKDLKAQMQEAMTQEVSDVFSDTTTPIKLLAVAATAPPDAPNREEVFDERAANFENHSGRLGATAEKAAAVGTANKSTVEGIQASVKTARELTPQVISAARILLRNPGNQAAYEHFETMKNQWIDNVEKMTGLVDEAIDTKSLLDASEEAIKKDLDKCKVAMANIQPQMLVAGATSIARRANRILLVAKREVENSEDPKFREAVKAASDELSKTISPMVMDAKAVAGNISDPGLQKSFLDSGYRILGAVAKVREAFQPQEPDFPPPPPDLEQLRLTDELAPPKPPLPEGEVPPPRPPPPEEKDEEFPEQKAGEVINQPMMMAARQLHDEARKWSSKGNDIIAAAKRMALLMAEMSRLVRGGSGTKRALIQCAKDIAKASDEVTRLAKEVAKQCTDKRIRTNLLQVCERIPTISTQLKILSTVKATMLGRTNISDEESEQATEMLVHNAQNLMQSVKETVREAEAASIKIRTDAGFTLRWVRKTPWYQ

Sequence of Paxillin (Gallus gallus (Chicken)), P49024 Y31E;Y118E (P49024 whole entry Y31E/Y118E): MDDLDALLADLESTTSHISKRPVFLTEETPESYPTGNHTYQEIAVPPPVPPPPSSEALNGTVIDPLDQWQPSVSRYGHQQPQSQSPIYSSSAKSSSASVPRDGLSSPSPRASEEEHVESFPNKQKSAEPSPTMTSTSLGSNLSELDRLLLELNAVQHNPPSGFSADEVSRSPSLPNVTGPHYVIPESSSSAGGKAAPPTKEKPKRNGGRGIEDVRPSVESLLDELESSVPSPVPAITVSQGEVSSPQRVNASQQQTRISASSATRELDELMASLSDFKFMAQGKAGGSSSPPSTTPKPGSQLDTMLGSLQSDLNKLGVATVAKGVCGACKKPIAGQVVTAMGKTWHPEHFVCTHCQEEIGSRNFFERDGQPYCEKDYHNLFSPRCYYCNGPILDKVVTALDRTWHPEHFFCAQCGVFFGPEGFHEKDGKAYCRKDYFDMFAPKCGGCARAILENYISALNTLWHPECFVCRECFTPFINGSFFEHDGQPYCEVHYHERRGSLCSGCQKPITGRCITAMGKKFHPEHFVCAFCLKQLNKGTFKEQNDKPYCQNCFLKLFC
Sequence of Paxillin (Gallus gallus (Chicken)), P49024 Y31F;Y118F (P49024 whole entry Y31F/Y118F): as the sequence (P49024 whole entry Y31E/Y118E) above, with E31F, E118F counted along it

effect of a mutation on the interaction	Substance
decreasing interaction	Paxillin (Gallus gallus (Chicken)), P49024 Y31F;Y118F
increasing interaction	Paxillin (Gallus gallus (Chicken)), P49024 Y31E;Y118E
